The experiment addresses T1, C4b-binding protein (human, UniProt P04003 49-597; P20851 18-252).
T1 construct: In the AP-MS experiments it was followed by its alpha chain (C4BPA); also called C4BP; C4BPα; source: endogenous, pooled human plasma (AP-MS); bought: Complement Technology, purified human complement C4BP, catalog A109 (SPR, TX-MS, HDX-MS); copies: 7 +
T1 sequence (looked up) 1: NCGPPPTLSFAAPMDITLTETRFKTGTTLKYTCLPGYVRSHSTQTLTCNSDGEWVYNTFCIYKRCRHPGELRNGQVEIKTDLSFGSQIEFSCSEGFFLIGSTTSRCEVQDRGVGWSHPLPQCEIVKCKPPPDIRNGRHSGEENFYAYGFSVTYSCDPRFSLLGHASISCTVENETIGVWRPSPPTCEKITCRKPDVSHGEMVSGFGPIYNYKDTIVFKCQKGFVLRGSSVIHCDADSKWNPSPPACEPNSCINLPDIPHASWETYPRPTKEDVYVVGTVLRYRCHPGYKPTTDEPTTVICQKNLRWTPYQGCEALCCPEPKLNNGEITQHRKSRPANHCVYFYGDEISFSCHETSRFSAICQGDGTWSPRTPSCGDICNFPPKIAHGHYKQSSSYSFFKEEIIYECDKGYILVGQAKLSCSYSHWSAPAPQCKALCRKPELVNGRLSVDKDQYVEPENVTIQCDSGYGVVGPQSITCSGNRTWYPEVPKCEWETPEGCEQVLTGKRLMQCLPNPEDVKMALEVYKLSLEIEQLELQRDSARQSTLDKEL
T1 sequence (looked up) 2: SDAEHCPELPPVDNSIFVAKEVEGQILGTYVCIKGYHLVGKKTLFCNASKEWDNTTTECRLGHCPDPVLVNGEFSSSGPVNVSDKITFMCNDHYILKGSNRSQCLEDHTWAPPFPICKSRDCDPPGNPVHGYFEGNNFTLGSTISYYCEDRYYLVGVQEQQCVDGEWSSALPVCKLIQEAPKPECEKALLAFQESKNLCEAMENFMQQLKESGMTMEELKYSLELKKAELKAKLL
The experiment is described as follows: cross-linking; TX-MS: 10 μg C4BP or 10 μg IgA Fc with 10 μg untagged M28 in 100 μl PBS, 37°C, DSS-H12/D12 at 0 to 2,000 μM for 60 min; cross-linked peptides by DDA-MS. The note with it: both partners purified.

B1: M28 protein, recombinant, affinity tag removed by TEV protease (natural protein)
chain: AESPKSTETSANGADKLADAYNTLLTEHEKLRDEYYTLIDAKEEEPRYKALRGENQDLREKEGKYQDKIKKLEEKEKNLEKKSEDVERHYLKKLDQEHKEQEERQKNLEELERQSQREIDKRYQEQLQKQQQLETEKQISEASRKSLSRDLEASRAAKKDLEAEHQKLKEEKQISDASRQGLSRDLEASRAAKKDLEAEHQKLKEEKQISDASRQGLSRDLEASREAKKKVEADLAEANSKLQALEKLNKELEEGKKLSEKEKAELQARLEAEAKALKEQLAKQAEELAKLKGNQTPNAKVAPQANRSRSAMTQQKR
notes: M protein of S. pyogenes serotype M28, mature, without the signal peptide and the LPXTG cell wall-anchoring motif, aa 42 to 358; Used for SPR, TX-MS and HDX-MS; also called untagged M28; TEV-cleaved M28; source: E. coli Tuner(DE3), purified (HisTrap, TEV digestion, HisTrap, Superdex 200)
For B1, the binding result is “binds”.

For the origin of these results see paper PMC8547449, “Streptococcus pyogenes Forms Serotype- and Local Environment-Dependent Interspecies Protein Complexes” (mSystems, 2021).
